{"source": "paper PMC3968158", "key": {"CrkII SH2 domain, 1-124": {"target": "CrkII SH2 domain, 1-124 (UniProt Q64010)", "experiment": "GST pull-down from infected-cell lysate, anti-Tir blot", "details": "reference: WT Tir (Δtir EPEC + ptir); sites Y474"}, "CrkL SH2 domain, 9-108": {"target": "CrkL SH2 domain, 9-108 (UniProt P46109)", "experiment": "GST pull-down from infected-cell lysate, anti-Tir blot", "details": "reference: WT Tir (Δtir EPEC + ptir); sites Y474"}}}
{"substance": "Tir (translocated intimin receptor) (from UniProt B7UM99) Tir Y474F (Δtir EPEC + ptirY474F)", "values": [{"measurement": "binding against the reference", "setting": "CrkII SH2 domain, 1-124", "result": "lost"}, {"measurement": "binding against the reference", "setting": "CrkL SH2 domain, 9-108", "result": "lost"}]}
